Like-named read-outs stand apart in the source and are kept apart here.
Target: EGFR (ERBB1) (UniProt P00533)

Sequence	Kd (N = BndU [n positions 2,8,9,11,15,20,21,23,24,28,29,31,32,33,37,38 = modified dU]) [nM]	Kd (N = BndU (5-benzylaminocarbonyl-2'-deoxyuridine), text prints natural T in the 5' region CCACGCTGGGTGGGTC while listing shows n there [n positions 7,11,15,18,24,25,27,31,36,37,39,40,44,45,47,48,49,53,54 = modified dU]) [nM]
ATCGAGGTTGTGGGTCGGATTGTTGGATTCTTTAAGTTGGGAACACCAAC [EGFR aptamer SEQ ID NO: 5 (50-mer truncate)]	0.526	
CCACGCTGGGTGGGTCATCGAGGTTGTGGGTCGGATTGTTGGATTCTTTAAGTTGGGAACACCAACCGAGAACG [EGFR aptamer SEQ ID NO: 4]		0.123
